Measured values: patent US6323001A, “Increasing the trehalose content of organisms by transforming them with combinations of the structural genes for trehalose synthase” (BTG International Ltd., priority 1994, dated 2001)

Assays:
Type in all cases: biochemical, baker's yeast
[1] = target: T1, Tre6Pase activity of the 99 kDa polypeptide (Saccharomyces cerevisiae, UniProt P31688); test: Tre6Pase activity of isolated 99 kDa polypeptide
T1 construct: the 99 kDa polypeptide isolated from intact trehalose synthase is a specific trehalose-6-phosphatase; made in house; host or cells: commercial baker's yeast (native; isolated from intact trehalose synthase on phosphocellulose)
Experimental: Intact trehalose synthase has also been fractionated on phosphocellulose in the absence of Triton, and with elution by a simple linear gradient from 0 to 0.6 M NaCl. […] This activity differed from the Tre6Pase activity of intact trehalose synthase in that the ratio of activities at 25 mM phosphate and 50 mM Hepes was between 1.5 and 3 in different experiments (cf, this ratio is 5 to 6 for intact trehalose synthase). Furthermore, during storage of the isolated 99 kDa polypeptide at 0° C., the Tre6Pase activity at 25 mM phosphate decreased and that at 50 mM Hepes increased, until the ratio was about 0.7 after 7 weeks.

[2] = target: T2, Tre6Pase activity of intact trehalose synthase (Saccharomyces cerevisiae, UniProt P31688); test: Tre6Pase assay of intact trehalose synthase
T2 construct: Intact trehalose synthase was purified from commercial baker's yeast; made in house; host or cells: commercial baker's yeast (native enzyme purified, not recombinant)
T2 sequence (P31688 1-896): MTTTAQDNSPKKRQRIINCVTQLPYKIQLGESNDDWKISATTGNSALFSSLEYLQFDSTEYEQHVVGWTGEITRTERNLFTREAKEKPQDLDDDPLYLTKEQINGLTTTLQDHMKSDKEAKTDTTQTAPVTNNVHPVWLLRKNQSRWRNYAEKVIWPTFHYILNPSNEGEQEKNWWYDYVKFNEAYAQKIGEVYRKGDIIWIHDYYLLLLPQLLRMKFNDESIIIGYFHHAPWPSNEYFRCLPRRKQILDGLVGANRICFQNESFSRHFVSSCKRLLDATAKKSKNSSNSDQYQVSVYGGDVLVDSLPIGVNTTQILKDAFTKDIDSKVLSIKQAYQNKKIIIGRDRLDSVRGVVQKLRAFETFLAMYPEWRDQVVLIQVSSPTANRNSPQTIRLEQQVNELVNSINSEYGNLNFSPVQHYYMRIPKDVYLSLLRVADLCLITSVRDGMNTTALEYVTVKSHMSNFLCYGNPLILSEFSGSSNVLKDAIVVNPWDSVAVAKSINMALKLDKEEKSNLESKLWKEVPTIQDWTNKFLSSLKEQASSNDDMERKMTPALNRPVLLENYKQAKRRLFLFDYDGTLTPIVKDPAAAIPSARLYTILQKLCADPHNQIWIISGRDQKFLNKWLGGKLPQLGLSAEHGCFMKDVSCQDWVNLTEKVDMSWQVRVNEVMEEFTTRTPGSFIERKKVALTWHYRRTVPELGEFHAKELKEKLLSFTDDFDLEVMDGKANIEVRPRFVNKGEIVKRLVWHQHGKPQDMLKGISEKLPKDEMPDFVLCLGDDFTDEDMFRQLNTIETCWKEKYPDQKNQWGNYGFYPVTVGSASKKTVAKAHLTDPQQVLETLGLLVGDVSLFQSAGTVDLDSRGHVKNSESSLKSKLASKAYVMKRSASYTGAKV
T2 sequence (Q00764 1-495 partner): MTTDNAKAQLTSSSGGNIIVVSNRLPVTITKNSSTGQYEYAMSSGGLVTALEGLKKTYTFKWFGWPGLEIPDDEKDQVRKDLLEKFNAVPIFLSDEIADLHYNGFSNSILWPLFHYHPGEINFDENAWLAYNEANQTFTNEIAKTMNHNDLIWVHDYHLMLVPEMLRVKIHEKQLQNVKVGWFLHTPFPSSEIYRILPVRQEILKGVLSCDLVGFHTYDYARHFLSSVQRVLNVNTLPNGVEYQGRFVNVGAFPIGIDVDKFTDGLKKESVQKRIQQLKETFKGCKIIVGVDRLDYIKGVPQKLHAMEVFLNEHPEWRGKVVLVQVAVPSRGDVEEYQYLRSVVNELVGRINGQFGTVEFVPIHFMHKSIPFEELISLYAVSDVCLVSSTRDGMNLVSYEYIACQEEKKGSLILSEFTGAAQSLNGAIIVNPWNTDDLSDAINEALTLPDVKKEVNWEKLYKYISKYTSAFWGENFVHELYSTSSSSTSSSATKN
T2 sequence (P38427 1-1098 partner): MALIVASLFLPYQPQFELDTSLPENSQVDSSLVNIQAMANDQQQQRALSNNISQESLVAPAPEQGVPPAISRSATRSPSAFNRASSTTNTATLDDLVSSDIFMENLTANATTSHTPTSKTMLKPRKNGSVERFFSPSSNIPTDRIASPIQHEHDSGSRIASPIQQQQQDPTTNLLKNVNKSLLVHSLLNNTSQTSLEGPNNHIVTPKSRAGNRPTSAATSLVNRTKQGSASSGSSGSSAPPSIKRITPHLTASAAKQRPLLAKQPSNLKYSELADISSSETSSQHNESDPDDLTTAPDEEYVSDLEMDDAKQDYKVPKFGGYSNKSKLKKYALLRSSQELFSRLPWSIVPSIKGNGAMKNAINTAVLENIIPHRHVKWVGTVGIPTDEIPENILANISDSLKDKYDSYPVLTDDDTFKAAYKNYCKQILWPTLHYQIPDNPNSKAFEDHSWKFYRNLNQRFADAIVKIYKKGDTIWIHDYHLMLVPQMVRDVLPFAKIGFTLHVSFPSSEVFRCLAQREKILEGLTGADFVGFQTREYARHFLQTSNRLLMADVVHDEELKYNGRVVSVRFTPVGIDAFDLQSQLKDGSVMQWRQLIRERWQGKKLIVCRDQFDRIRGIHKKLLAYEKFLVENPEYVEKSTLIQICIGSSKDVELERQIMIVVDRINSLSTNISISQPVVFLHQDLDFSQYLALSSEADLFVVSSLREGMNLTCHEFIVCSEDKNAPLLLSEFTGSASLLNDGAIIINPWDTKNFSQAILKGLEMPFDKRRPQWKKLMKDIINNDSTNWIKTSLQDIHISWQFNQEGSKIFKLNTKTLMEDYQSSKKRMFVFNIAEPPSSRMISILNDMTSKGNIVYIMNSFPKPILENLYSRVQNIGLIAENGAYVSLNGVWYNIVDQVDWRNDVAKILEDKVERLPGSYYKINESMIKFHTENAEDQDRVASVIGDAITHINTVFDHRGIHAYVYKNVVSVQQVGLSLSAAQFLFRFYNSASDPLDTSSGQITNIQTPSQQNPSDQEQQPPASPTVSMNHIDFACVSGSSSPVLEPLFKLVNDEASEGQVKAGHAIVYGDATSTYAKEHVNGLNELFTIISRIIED
Experimental: (§1) With microbial materials, Tre6Pase and Tre6P synthase standard assays and other kinetic measurements were made as described by Londesborough & Vuorio [(1991) loc. cit.] except that the standard Tre6P synthase assay mixture contained 5 mM F6P unless stated otherwise.
(§2) In one experiment intact trehalose synthase (0.28 Tre6P synthase units, ≈9.4 μg) was incubated with or without 0.5 μg of trypsin at 30° C. in 250 μl of 13 mM HEPES pH 7.0 containing 1 mM MgCl2, 0.5 mM EDTA, 0.5 mM dithiothreitol, 0.2 M NaCl and 0.5 mM benzamidine. Its Tre6P synthase activity was determined at intervals using standard assay mixtures (containing 5 mM F6P) containing no or 4 mM K phosphate pH 6.8, and samples were prepared for SDS-PAGE analysis immediately before and 48 min after addition of the trypsin.
Intact trehalose synthase was prepared as in Example 1. Kinetic assays were done at 30° C. as described in General Methods and Materials.

[3] = target: T3, Tre6P synthase activity of intact trehalose synthase (Saccharomyces cerevisiae, UniProt Q00764); test: Tre6P synthase assay of intact trehalose synthase; conditions: 11 μg trypsin, 25° C., after first 30 min (26% before)
T3 construct: Intact trehalose synthase was purified from commercial baker's yeast; made in house; host or cells: commercial baker's yeast (native enzyme purified, not recombinant)

[4] = target: T3, Tre6P synthase activity of intact trehalose synthase; test: Tre6P synthase assay of intact trehalose synthase; conditions: 0.5 μg trypsin, 30° C., first 10 min
Experimental: as §1
as §2, with “Removal of the N-terminal 325 or so amino acids from the 123 kDa long chain of intact trehalose synthase by treatment with trypsin in vitro produces an enzyme with catalytic properties like those of the truncated enzyme purified by Londesborough & Vuorio [(1991) loc. cit.]. In” for “In”
Truncated trehalose synthase was prepared as described by Londesborough & Vuorio [(1991) loc. cit.] and contained the 57 kDa short chain and 86 and 93 kDa fragments of the long chain. Intact trehalose synthase was prepared as in Example 1. Kinetic assays were done at 30° C. as described in General Methods and Materials.

| Molecule | hydrolysis by isolated 99 kDa polypeptide [1] | rate of hydrolysis relative to 0.5 mM trehalose-6-phosphate ([2]; 1 mM G6P, phosphate or Hepes buffer) | loss of Tre6Pase activity ([2]; limited treatment with trypsin, 30° C.) | Tre6P synthase activity in absence of F6P and presence of 10 mM phosphate, % of standard activity [3] [%] | increase in Tre6P synthase activity measured at 4 mM phosphate [4] [fold] |
| --- | --- | --- | --- | --- | --- |
| O=P(O)(O)OC[C@H]1OC(O)[C@H](O)[C@@H](O)[C@@H]1O (some centres unmarked) [Transformant G6P, Glucose 6-phosphate] | not hydrolyzed | less than 1% |  |  |  |
| trypsin |  |  | about 50% | 73 | 4 |
